Data on six molecules can be found in publication PMC4805503 (Traffic (Copenhagen, Denmark), 2016).

The target of one experiment is tepsin (Homo sapiens) (UniProt Q96N21). The settings on record: cited from earlier work.
The target of experiment [1] is T1, AP4 β4 C-terminal appendage domain (residues 612–739), wild type (UniProt Q9Y6B7 612-739).
T1 sequence (looked up): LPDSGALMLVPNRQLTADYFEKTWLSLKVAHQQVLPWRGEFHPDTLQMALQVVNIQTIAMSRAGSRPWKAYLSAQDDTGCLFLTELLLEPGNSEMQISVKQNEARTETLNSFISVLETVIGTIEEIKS
Nature of the experiment: ITC. In general terms: In ITC the heat of successive injections is recorded.

The target in experiment [2] is T1, AP4 β4 C-terminal appendage domain …. Nature of the experiment: pull-down.

A value given as a limit tells only on which side of the number the result lay.

By Kd is commonly meant the equilibrium constant for the complex coming apart. As to “AP4 ε appendage domain (from UniProt Q9UPM8)”, the dissociation constant (Kd) in the experiment with tepsin (Homo sapiens) is 3 µM.

B1: tepsin C-terminal fragment (residues 450–500), GST removed (domain or fragment, UniProt Q96N21 450-500, looked up)
chain: PGGTDSPKRGPSSCAWSRDSLFAGMELVACPRLVGAGAAAGESCPDAPRAP
The stoichiometry N is a count of units in the complex or per binding partner. Take B1: in experiment [1], the affinity, expressed as Kd, was 2.9 µM and the “stoichiometry N” value is 1.

B2: tepsin fragment (residues 450–500) L470S/F471S, GST removed (domain or fragment, UniProt Q96N21 450-500, looked up)
chain: PGGTDSPKRGPSSCAWSRDSSSAGMELVACPRLVGAGAAAGESCPDAPRAP
For the molecule B2, in experiment [1], the Kd is > 300 µM.

B3: tepsin fragment (residues 450–500) L476S/V477S, GST removed (domain or fragment, UniProt Q96N21 450-500, looked up)
chain: PGGTDSPKRGPSSCAWSRDSLFAGMESSACPRLVGAGAAAGESCPDAPRAP
Regarding B3, the “fold weaker binding than wild type” value in experiment [1] is ~15 fold.

B4: tepsin fragment (residues 450–500) G473I/M474Q, GST removed (domain or fragment, UniProt Q96N21 450-500, looked up)
chain: PGGTDSPKRGPSSCAWSRDSLFAIQELVACPRLVGAGAAAGESCPDAPRAP
With B4, the Kd in experiment [1] was > 300 µM.

B5: GST-tepsin (residues 450–525) (domain or fragment, UniProt Q96N21 450-525, looked up)
chain: PGGTDSPKRGPSSCAWSRDSLFAGMELVACPRLVGAGAAAGESCPDAPRAPQTSSQRTAAKEPPGSEPSAFAFLNA
For B5, in experiment [2], the binding result is reported as “binds”.
